Reference: US20250019435A1 (ALBERT EINSTEIN COLLEGE OF MEDICINE, published 2025)
Blank lines part the entries; values can stand above or below the binder they belong to.

How the values were obtained:
[1] = target: T1, D0-deleted KIR2DL5 expressed on 3T3 cells (human, UniProt Q8N109 119-375); assay: flow cytometry, transduced 3T3 cells
T1 construct: the signal peptide 1-21 is left out; also called KIR2DL5 dD0; DO-deleted KIR2DL5
Text: (§1) FIG. 15A-15E: Characterization of anti-KIR2DL5 specific monoclonal antibodies. (Related to FIGS. 8A-8D). (A) The protein sequence of KIR2DL5. The extracellular domain of KIR2DL5 was composed of tandem DO-D2 domains. The cytoplasmic tail of KIR2DL5 contained an immunoreceptor tyrosine-based inhibition motif (ITIM) and immunoreceptor tyrosine-based switch motif (ITSM). Domains were predicted and annotated based on UniProtKB (Q8N109). (B) The specificity of anti-KIR2DL5 mAbs. 3T3 cells transduced with indicated KIR family members were stained with 5 μg/ml of indicated anti-KIR2DL5 mAbs (open) or mIgG1 (shaded). (C, D) The affinity of anti-KIR2DL5 mAbs. C: Kinetic binding curves for F8B30 and B19C11. D: Data were acquired from kinetic binding curves detected by the Octet Red96 BLI instrument for indicated clones. (E) 3T3 cells transduced with DO-deleted (KIR2DL5 dD0) or D2-deleted KIR2DL5 (KIR2DL5 dD2) were stained with 5 μg/ml of indicated anti-KIR2DL5 mAbs. In B-E, data are representative of three independent experiments.

[2] = target: T2, D2-deleted KIR2DL5 expressed on 3T3 cells (human, UniProt Q8N109 22-375); assay: flow cytometry, transduced 3T3 cells
T2 construct: also called KIR2DL5 dD2
Text: as §1

[3] = target: T3, KIR2DL5-Ig fusion protein (KIR2DL5 extracellular domain fused to human IgG1 Fc) (human, UniProt Q8N109 22-240); assay: BLI, Octet RED96; KIR2DL5-Ig captured on anti-human Fc biosensors, mAb in solution; global 1:1 fit
T3 construct: A D0-only fusion (H22-A128) also exists; also called KIR2DL5-human Ig fusion protein; KIR2DL5 DO-D2-Ig; not shown: human IgG1 Fc tag
Protocol: Biolayer interferometry. The affinities of anti-KIR2DL5 mAbs were analyzed by biolayer interferometry using an Octet RED96 system (ForteBio, Pall LLC). Briefly, anti-human Fc capture biosensors (ForteBio, Pall LLC) were preloaded with KIR2DL5-Ig and then dipped into a solution containing mAb at 2-fold serial dilutions (from 200 to 1.5 μg/mL). Data were analyzed using Forte Pall (Port Washington, New York, USA) software 9.0. The global data fitting to a 1:1 binding model was used to estimate values for the Kₒₙ (association rate constant), Koff (dissociation rate constant), and KD (equilibrium dissociation constant).

[4] = target: T4, PVR expressed on transduced cells (PVR-YFP) (UniProt P15151 21-417); assay: confocal imaging of conjugates of transduced primary NK cells with PVR-YFP/Raji cells
T4 construct: whole, on cells; On NIH 3T3 or Raji cells; also called PVR/3T3; PVR-YFP/3T3; not shown: YFP ('PVR-YFP ... fusion protein')
T4 sequence (looked up): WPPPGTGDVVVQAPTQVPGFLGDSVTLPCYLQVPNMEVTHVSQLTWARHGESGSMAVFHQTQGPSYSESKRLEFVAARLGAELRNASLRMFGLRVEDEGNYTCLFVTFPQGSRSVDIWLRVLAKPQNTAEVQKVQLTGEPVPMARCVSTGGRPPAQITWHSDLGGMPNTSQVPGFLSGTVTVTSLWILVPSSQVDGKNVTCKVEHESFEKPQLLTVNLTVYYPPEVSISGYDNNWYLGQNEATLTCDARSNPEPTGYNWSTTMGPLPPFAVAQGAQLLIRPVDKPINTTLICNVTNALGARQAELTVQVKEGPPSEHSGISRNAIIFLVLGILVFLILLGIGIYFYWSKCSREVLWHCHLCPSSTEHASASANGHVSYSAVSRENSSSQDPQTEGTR
Protocol: (§2) The KIR2DL5⁻ primary NK cells were transduced with WT KIR2DL5 or the indicated mutants, and then examined for protein expression with F8B30 (open) or mIgG1 (shaded). NC, negative control. Data are representative of 2 independent experiments. (B and C) Transduced primary NK cells were treated with (+) or without (−) pervanadate (VO₄) for 5 minutes. Cell lysates were immunoprecipitated with anti-KIR2DL5 antibodies. Phospho-tyrosine (4G10), SHP-1, SHP-2, and total KIR2DL5 were detected by immunoblots (B). Quantification of p-Tyr, SHP-1, and SHP-2 association with WT or mutant KIR2DL5 in VO₄-treated NK cells (C). WCL, whole-cell lysates. (D) Representative imaging of cell conjugates acquired upon the indicated transduced primary NK and PVR/Raji cell contact followed by staining with anti-KIR2DL5 mAb and DAPI. Scale bars: […]. (E) Lysis of scramble control or PVR^KO A427 (top) and Jurkat (bottom) by WT or mutant KIR2DL5-transduced primary NK cells at the indicated E/T ratios. Data are mean for duplicate measurements and representative of 3 independent experiments with 3 different donors. In A, and B, data are representative of 3 independent experiments. *P<0.05, **P<0.01, ***P<0.001, ****P<0.0001, by 1-way ANOVA (C), or paired Student's t test (D).
NK-Raji conjugation assay. […] Cell mixtures were then loaded onto poly-L-lysine-precoated slides and fixed with 4% formaldehyde at RT for 15 minutes. After blocking with 5% normal goat serum at RT for 1 hour, cells were stained with 20 µg/mL anti-KIR2DL5 antibodies (a mixture of 8 homemade clones) at 4° C. overnight and then with goat anti-mIgG (H+L) Alexa Flour 647 (Invitrogen) at RT for 2 hours. The cells were permeabilized by 0.1% Triton X-100 at RT for 15 minutes and stained with Alexa Flour Plus 405 Phalloidin (Life Technologies) for 1 hour at RT. The slides were then mounted by Gold Antifade Mountant without DAPI (Life Technologies). The mean pixel intensity of synapse and non-synapse was respectively measured and statistically analyzed. Images were acquired by Leica SP8 confocal microscope and processed by ImageJ (NIH).

SHP-2 = target: T5, SHP-2 (human, UniProt Q06124 2-593); assay: co-immunoprecipitation with anti-KIR2DL5 from transduced primary NK cells with or without pervanadate, immunoblot
T5 sequence (looked up): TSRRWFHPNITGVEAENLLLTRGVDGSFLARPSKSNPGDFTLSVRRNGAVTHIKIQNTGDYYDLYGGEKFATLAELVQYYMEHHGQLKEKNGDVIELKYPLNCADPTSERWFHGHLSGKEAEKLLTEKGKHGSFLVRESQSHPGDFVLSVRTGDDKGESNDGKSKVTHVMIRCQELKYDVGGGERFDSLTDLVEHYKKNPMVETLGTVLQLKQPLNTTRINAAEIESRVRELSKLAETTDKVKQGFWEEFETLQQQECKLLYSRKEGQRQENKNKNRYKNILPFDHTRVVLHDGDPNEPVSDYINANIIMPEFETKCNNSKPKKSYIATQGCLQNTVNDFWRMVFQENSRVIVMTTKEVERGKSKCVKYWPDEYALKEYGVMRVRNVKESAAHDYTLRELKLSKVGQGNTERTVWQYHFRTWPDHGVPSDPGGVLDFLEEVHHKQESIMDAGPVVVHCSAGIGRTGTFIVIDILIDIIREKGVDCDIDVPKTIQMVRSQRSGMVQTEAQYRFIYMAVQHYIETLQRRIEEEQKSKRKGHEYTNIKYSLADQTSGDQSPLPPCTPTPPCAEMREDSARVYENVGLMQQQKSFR
Protocol: as §2, with “FIG. 12A-12E: KIR2DL5 ITIM and ITSM mediated NK cell inhibition and suppressed downstream signaling. (A) Tyrosine (Y) in ITIM and ITSM of KIR2DL5 was mutated to phenylalanine (F). The” for “The”
Coimmunoprecipitation and immunoblotting. NK92 cells or primary NK cells pretreated with or without 1 mM pervanadate (New England BioLabs) were lysed in Pierce immunoprecipitation lysis buffer supplemented with protease and phosphatase inhibitor cocktail (Thermo Fisher Scientific). Proteins from whole-cell lysis were further incubated with anti-KIR2DL5 antibodies and Dynabeads protein G (Thermo Fisher Scientific) for further immunoprecipitation. […]

binding result [1]: no binding (tested: 5 µg/ml)
binding result [2]: no binding (tested: 5 µg/ml)
Kd [3]: 0.0413 nM
koff [3]: 6.96e-05 s⁻¹
kon [3]: 1.69e+06 M⁻¹ s⁻¹
B1: anti-KIR2DL5 mAb clone B7B23 (antibody, V domains shown)
VH: QVQLQQSGAELVRPGVSVKISCKGSGYTFTDYTMHWVKQSHAKSLEWIGVISPYYGDASYNQKFKGKATMTVDKSSSTAYMELARLTSEDSAIYYCARGLLRGFAYWGQGTLVTVS
VL: DIVMTQSPSSKDMSVGQKVTMRCKSSKSLLNSSNQKKYLAWYQQKPGQSPKLLVYFASIRESGVPDRFIGSGSGTDFTLTISSVQVEDLADYFCQQHYSTPWTFGGG
notes: also called B7B23 (IgG1, κ)

binding result [4]: binds
binding result (SHP-2): no binding
B2: Y298F (receptor)
receptor chain: HEGGQDKPLLSAWPSAVVPRGGHVTLLCRSRLGFTIFSLYKEDGVPVPELYNKIFWKSILMGPVTPAHAGTYRCRGSHPRSPIEWSAPSNPLVIVVTGLFGKPSLSAQPGPTVRTGENVTLSCSSRSSFDMYHLSREGRAHEPRLPAVPSVNGTFQADFPLGPATHGGTYTCFGSLHDSPYEWSDPSDPLLVSVTGNSSSSSSSPTEPSSKTGIRRHLHILIGTSVAIILFIILFFFLLHCCCSNKKNAAVMDQEPAGDRTVNREDSDDQDPQEVTFAQLDHCVFTQTKITSPSQRPKTPPTDTTMYMELPNAKPRSLSPAHKHHSQALRGSSRETTALSQNRVASSHVPAAGI
notes: also called KIR2DL5 Y298F (ITIM mutant) on transduced primary NK cells
